Experiments:
[1] = target: T1, CPN present in the paste (Homo sapiens, UniProt P15169); assay: Effect of CP inhibitors on C-terminal lysine truncation in dissolved, ethanol-treated IV-1 paste (IEF); type: biochemical
T1 construct: Cohn IV-1 precipitate is usually derived after ethanol fractionation of plasma; from tissue; host or cells: Cohn IV-1 paste (ethanol precipitate of plasma)
T1 sequence (P15169 21-458): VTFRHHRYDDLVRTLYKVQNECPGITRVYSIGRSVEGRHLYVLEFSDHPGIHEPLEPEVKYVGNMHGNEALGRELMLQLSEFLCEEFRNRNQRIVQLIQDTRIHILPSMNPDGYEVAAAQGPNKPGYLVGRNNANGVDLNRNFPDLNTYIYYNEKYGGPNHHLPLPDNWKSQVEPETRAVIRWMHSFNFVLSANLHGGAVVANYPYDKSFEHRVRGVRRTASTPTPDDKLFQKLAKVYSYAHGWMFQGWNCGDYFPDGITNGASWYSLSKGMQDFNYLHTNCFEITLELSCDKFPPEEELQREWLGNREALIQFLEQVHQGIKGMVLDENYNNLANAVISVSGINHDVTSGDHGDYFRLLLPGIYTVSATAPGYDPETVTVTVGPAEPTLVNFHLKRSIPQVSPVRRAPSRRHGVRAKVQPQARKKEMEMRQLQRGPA
T1 sequence (P22792 22-545 partner): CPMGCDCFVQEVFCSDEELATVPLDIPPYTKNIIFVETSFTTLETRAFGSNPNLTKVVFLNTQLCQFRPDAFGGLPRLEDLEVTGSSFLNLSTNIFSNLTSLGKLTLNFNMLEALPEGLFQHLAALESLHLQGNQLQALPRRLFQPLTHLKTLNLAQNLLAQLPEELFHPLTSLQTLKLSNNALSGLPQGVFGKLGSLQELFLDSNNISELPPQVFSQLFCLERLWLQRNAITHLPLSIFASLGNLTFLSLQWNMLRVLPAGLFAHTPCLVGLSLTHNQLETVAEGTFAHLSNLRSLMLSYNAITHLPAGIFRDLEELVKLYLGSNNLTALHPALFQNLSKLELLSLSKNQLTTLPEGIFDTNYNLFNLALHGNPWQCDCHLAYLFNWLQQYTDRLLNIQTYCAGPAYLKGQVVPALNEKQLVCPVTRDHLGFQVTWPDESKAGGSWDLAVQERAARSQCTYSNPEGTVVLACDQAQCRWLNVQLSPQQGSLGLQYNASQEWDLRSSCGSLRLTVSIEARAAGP
Procedure: (§1) Cohn IV-1 paste was dissolved in 2.6 volumes of 10 mM Tris-buffer at pH 8.8 and incubated for 30 min at 22° C. The suspension was made 40% in ethanol (by addition of 2.4 volumes of ethanol), stirred for a further 60 min, diluted with the same Tris-buffer to 10% ethanol and extracted for a further 6 h.
The following inhibitors were added in parallel during extraction and dilution with Tris-buffer: 100 mM 6-aminocaproic acid, 10 μM or 1 nM 2-mercaptomethyl-3-guanidinoethylthiopropanoic acid (a more specific inhibitor of CPN). The samples were characterized by high resolution isoelectric focusing.
(§2) For high resolution isoelectric focusing a new hybrid IEF method using IPG-Immobiline gels (GE Healthcare Bio-Sciences, pI 4.2-4.9, Uppsala, Sweden) was developed which is similar to that described by Weidinger^54. Samples were diluted with water to 0.5 mg A1PI/mL and 5 mM DTE was added. Samples (20 μl) were applied close to the cathode on the pre-focused gel and focused for 150 min (5000 Vh). For paste extracts focusing time was extended to 420 min. Gels were stained with Coomassie Brilliant Blue G-250 (BioRad, Hercules, USA) as described by Neuhoff^55. Blotting and immunostaining were done with a rabbit anti-A1PI antibody (Rabbit Anti-Human Alpha-1-Antitrypsin, #A0012, DakoCytomation, Glostrup, Denmark).

[2] = target: T2, CPN (Homo sapiens, UniProt P15169); assay: CPN-catalysed removal of C-terminal lysine from A1PI products, released Lys by HPLC; type: biochemical; set-up: purchased Elastin Company; conditions: for Ethanol concentration at which linear increase of Lys removal starts: incubation with CPN, 10 min
T2 sequence (P15169 21-458): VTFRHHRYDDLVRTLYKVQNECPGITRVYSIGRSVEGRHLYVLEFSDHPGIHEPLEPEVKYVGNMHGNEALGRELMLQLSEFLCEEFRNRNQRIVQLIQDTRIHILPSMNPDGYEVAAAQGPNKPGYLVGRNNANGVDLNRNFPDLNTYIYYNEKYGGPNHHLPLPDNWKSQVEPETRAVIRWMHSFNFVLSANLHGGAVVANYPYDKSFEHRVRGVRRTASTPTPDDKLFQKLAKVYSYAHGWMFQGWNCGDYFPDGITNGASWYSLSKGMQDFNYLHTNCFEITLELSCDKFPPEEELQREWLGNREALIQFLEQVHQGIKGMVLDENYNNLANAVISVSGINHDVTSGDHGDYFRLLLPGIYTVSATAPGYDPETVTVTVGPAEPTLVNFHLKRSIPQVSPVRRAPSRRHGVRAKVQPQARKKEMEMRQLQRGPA
T2 sequence (P22792 22-545 partner): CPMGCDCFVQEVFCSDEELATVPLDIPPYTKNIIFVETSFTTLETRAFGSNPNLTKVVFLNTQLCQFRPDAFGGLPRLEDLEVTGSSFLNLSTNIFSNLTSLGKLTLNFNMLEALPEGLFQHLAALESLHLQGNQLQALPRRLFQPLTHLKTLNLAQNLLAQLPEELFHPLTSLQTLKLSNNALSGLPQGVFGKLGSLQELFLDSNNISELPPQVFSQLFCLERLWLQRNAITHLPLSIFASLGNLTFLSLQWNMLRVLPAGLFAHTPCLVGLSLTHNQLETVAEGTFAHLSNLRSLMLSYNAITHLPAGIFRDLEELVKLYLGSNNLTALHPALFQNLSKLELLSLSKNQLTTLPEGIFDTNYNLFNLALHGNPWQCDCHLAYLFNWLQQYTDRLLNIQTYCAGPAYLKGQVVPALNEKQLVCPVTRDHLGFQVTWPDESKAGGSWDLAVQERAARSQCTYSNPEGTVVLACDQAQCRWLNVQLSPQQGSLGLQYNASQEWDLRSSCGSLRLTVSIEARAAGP
Procedure: The cleaved C-terminal lysine of A1PI was determined using automated orthophtalicdialdehyd (OPA) pre-column derivatization and high-performance liquid chromatography. The derivatization reagent was prepared by dissolving 100 mg of OPA in 2.5 mL of methanol by short ultrasonication, adding 23 mL of deoxygenated sodium borate buffer (0.2 mol/L, pH 9.0), 100 μl of 2-mercaptoethanol and 100 μl of Brij 35 as described^53. The system used was an ASTED HPLC system (Gilson, Paris) with Shimadzu RF-A fluorescence detector and a C-18 Chromolith ODS 4.7*100 mm column. A mixture of 50 mM KH2PO4, acetonitrile and methanol (ratio 50:24:26) was used as mobile phase and ornithine was used as internal standard.
To 30 μl 0.5 mM A1PI (using ARALAST® (Alpha1-Proteinase Inhibitor (Human)) or PROLASTIN® (Alpha1-Proteinase Inhibitor (Human))) 10 μl water or ethanol (different concentrations) was added. Afterwards 10 μl CPN (500 U/L) was added and after a 10 minutes incubation interval the reaction was stopped by adding 50 μl internal standard in 0.25 M HCl. The cleaved lysine was quantified as described above.

[3] = HP-SEC aggregate content of A1PI products; type: physicochemical
Procedure: (§3) ARALAST® (Alpha1-Proteinase Inhibitor (Human)), Prolastin PROLASTIN® (Alpha1-Proteinase Inhibitor (Human)), and ZEMAIRA® (Alpha1-Proteinase Inhibitor (Human)) were analyzed by high-resolution IEF and high-performance size-exclusion chromatography (HP-SEC). Preparative separated isoforms from IEF were further purified by chromatography and subjected to mass spectrometry for sequence analyses, peptide mapping, and glycosylation analysis. Deamidation was quantified by enzymatic isoaspartate detection. Multiple sequence alignments and structural bioinformatics analyses were performed.

[4] = Percent C-terminal Lys truncated (des-Lys) A1PI in A1PI products; type: physicochemical, human; conditions: commercial product
Procedure: as §3

[5] = test system: A1PI; assay: C-terminal Lys truncation of A1PI in dissolved Cohn IV-1 paste (IEF); type: biochemical, human; conditions: presence of only 10% ethanol; CPB added, CPN as present in the paste
Procedure: as §1
IV-1 paste was dissolved in 20.6 volumes of 10 mM Tris-buffer at pH 8.8 and incubated during 30 min at 22° C. The suspension was made 10% in ethanol (by addition of 2.4 volumes of ethanol) and stirred for a further 6 h at 22° C. and pH 8.8.
as §2

[6] = test system: A1PI; assay: Incubation of purified non-truncated A1PI with carboxypeptidases, analysis by IEF; type: biochemical, human; conditions: for Lys truncation of A1PI by carboxypeptidase: A1PI in temporary contact with 40% ethanol, then diluted to 10% ethanol; for C-terminal lys removal from A1PI by carboxypeptidase: in the presence of only 10% ethanol
Procedure: A1PI solutions were incubated with different CPs. Temporary exposure to 40% ethanol was achieved by diluting the A1PI preparation (38 μM) with 96% ethanol. The precipitate formed was kept 30 min at −20° C. and a further 30 min at +4° C., before it was diluted with TRIS-HCl buffer (pH 8.8) to a final concentration of 10% ethanol. Concomitantly, CPs were added with the TRIS buffer and the reaction mixture containing 10 μM A1PI was then incubated at 37° C. for 60 min. Before IEF analysis dithioerythritol (DTE) was added to a final concentration of 5 mM. In addition, the incubation with CPs was done without ethanol or at 10% ethanol. Furthermore, we ran two concentration rows with either CPN (270-1 mU/ml) or CPM (250-10 mU/ml) after temporary exposure of A1PI to 40% ethanol (CPN units were tested against Hip-Arg).
as §2

## NCCCCCC(=O)O [6-amino caproic acid]
[1]; dissolved IV-1 paste, pH 8.8, 6 h
  Inhibition of Lys truncation induced by the procedure 40=>10% EtOH: could be inhibited
[1]; inhibitor at 100 mM
  Inhibition of lysine removal from A1PI: completely inhibited

## ARALAST: Alpha1-Proteinase Inhibitor (Human), approved plasma-derived A1PI concentrate, made from Cohn IV-1+IV-4 paste
[2]
  Ethanol concentration at which linear increase of Lys removal starts: 10 % ethanol

## PROLASTIN: Alpha1-Proteinase Inhibitor (Human), approved plasma-derived A1PI concentrate, purified from fraction IV-1
[2]; absence of ethanol
  Lys removed by CPN: very small amounts
[2]
  Ethanol concentration at which linear increase of Lys removal starts: 5 % ethanol
[3]
  Aggregate content: approximately 30%

## ZEMAIRA: Alpha1-Proteinase Inhibitor (Human), approved plasma-derived A1PI concentrate
[4]
  Percent of A1PI C-terminal truncation as compared to total A1PI protein: 6%

B1: CPB: carboxypeptidase B, EC 3.4.17.2, small 35 kDa carboxypeptidase from pancreas (protein, UniProt P15086 111-417, looked up)
Carboxypeptidase B: ATGHSYEKYNKWETIEAWTQQVATENPALISRSVIGTTFEGRAIYLLKVGKAGQNKPAIFMDCGFHAREWISPAFCQWFVREAVRTYGREIQVTELLDKLDFYVLPVLNIDGYIYTWTKSRFWRKTRSTHTGSSCIGTDPNRNFDAGWCEIGASRNPCDETYCGPAAESEKETKALADFIRNKLSSIKAYLTIHSYSQMMIYPYSYAYKLGENNAELNALAKATVKELASLHGTKYTYGPGATTIYPAAGGSDDWAYDQGIRYSFTFELRDTGRYGFLLPESQIRATCEETFLAIKYVASYVLEHLY
[5]
  Lys truncation of A1PI in dissolved IV-1 paste by carboxypeptidase: almost complete
[6]
  Lys truncation of A1PI by carboxypeptidase: almost complete
  C-terminal lys removal from A1PI by carboxypeptidase: completely truncate

B2: CPM: carboxypeptidase M, EC 3.4.17.12, recombinant, expressed in P. pastoris (protein, UniProt P14384 18-423, looked up)
Carboxypeptidase M: LDFNYHRQEGMEAFLKTVAQNYSSVTHLHSIGKSVKGRNLWVLVVGRFPKEHRIGIPEFKYVANMHGDETVGRELLLHLIDYLVTSDGKDPEITNLINSTRIHIMPSMNPDGFEAVKKPDCYYSIGRENYNQYDLNRNFPDAFEYNNVSRQPETVAVMKWLKTETFVLSANLHGGALVASYPFDNGVQATGALYSRSLTPDDDVFQYLAHTYASRNPNMKKGDECKNKMNFPNGVTNGYSWYPLQGGMQDYNYIWAQCFEITLELSCCKYPREEKLPSFWNNNKASLIEYIKQVHLGVKGQVFDQNGNPLPNVIVEVQDRKHICPYRTNKYGEYYLLLLPGSYIINVTVPGHDPHITKVIIPEKSQNFSALKKDILLPFQGQLDSIPVSNPSCPMIPLYRNLPDHS
[6]; 40% ethanol-pretreated purified A1PI
  Carboxypeptidase concentration inducing 50% C-terminal A1PI truncation: 50 mU/ml
[6]
  Lys truncation of A1PI by carboxypeptidase: almost complete

B3: CPN: carboxypeptidase N, EC 3.4.17.3, basic carboxypeptidase of plasma (protein, UniProt P15169 21-458; P22792 22-545, looked up)
Carboxypeptidase N catalytic …: VTFRHHRYDDLVRTLYKVQNECPGITRVYSIGRSVEGRHLYVLEFSDHPGIHEPLEPEVKYVGNMHGNEALGRELMLQLSEFLCEEFRNRNQRIVQLIQDTRIHILPSMNPDGYEVAAAQGPNKPGYLVGRNNANGVDLNRNFPDLNTYIYYNEKYGGPNHHLPLPDNWKSQVEPETRAVIRWMHSFNFVLSANLHGGAVVANYPYDKSFEHRVRGVRRTASTPTPDDKLFQKLAKVYSYAHGWMFQGWNCGDYFPDGITNGASWYSLSKGMQDFNYLHTNCFEITLELSCDKFPPEEELQREWLGNREALIQFLEQVHQGIKGMVLDENYNNLANAVISVSGINHDVTSGDHGDYFRLLLPGIYTVSATAPGYDPETVTVTVGPAEPTLVNFHLKRSIPQVSPVRRAPSRRHGVRAKVQPQARKKEMEMRQLQRGPA
Carboxypeptidase N subunit 2: CPMGCDCFVQEVFCSDEELATVPLDIPPYTKNIIFVETSFTTLETRAFGSNPNLTKVVFLNTQLCQFRPDAFGGLPRLEDLEVTGSSFLNLSTNIFSNLTSLGKLTLNFNMLEALPEGLFQHLAALESLHLQGNQLQALPRRLFQPLTHLKTLNLAQNLLAQLPEELFHPLTSLQTLKLSNNALSGLPQGVFGKLGSLQELFLDSNNISELPPQVFSQLFCLERLWLQRNAITHLPLSIFASLGNLTFLSLQWNMLRVLPAGLFAHTPCLVGLSLTHNQLETVAEGTFAHLSNLRSLMLSYNAITHLPAGIFRDLEELVKLYLGSNNLTALHPALFQNLSKLELLSLSKNQLTTLPEGIFDTNYNLFNLALHGNPWQCDCHLAYLFNWLQQYTDRLLNIQTYCAGPAYLKGQVVPALNEKQLVCPVTRDHLGFQVTWPDESKAGGSWDLAVQERAARSQCTYSNPEGTVVLACDQAQCRWLNVQLSPQQGSLGLQYNASQEWDLRSSCGSLRLTVSIEARAAGP
[5]
  Lys truncation of A1PI in dissolved IV-1 paste by carboxypeptidase: did not remove the C-terminal lysine
[6]; 50 mU CPN/ml
  C-terminal lysines cleaved from purified uncleaved A1PI: 10-20%
[6]
  Lys truncation of A1PI by carboxypeptidase: ~60%
  C-terminal lys removal from A1PI by carboxypeptidase: slightly
